# T1: human BCMA on cells (human, UniProt Q02223 1-184)
# T1 sequence (looked up): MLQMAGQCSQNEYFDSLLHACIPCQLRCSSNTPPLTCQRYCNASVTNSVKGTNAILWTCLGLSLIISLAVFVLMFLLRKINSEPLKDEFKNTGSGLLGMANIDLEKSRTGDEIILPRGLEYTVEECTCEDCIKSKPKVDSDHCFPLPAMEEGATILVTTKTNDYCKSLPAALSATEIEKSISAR
# T2: human BCMA protein (human, UniProt Q02223 1-54, limits assumed)
# T2 construct: also called hBCMA; Antigen BCMA
# T2 sequence (looked up): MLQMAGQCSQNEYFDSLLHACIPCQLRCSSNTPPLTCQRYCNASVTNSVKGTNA
# What was measured:
# [1] = target: T1, human BCMA on cells; assay: cell-based or functional assay
# [2] = target: T1, human BCMA on cells; assay: cell-based or functional assay; remark: listed apart in the source
# [3] = target: T1, human BCMA on cells; assay: cell-based or functional assay; remark: listed apart in the source
# [4] = target: T1, human BCMA on cells; assay: flow cytometry, MM1S cells
# Description: (§1) NCI-H929 cells (BCMA+++), MM1S cells (BCMA++), and RPMI-8226 cells (BCMA+) in the logarithmic growth phase were taken, adjusted to a cell density of 5×10⁶-10×10⁶ cells/mL using RPMI medium (Hyclon, catalog No. SH30809.01) containing 2% FBS (fetal bovine serum), respectively, and seeded in a 96-well U-bottom cell culture plate (Costar, catalog No. 3799) at 50 μL per well. The test antibodies at different concentrations were prepared using the medium described above. […] The antibodies at different concentrations were added to the 96-well cell culture plate described above at 50 μL per well, mixed well and incubated at 4° C. for 1 h. The cells were washed with pre-cooled running buffer (MACS, catalog No. 130-091-221), and the supernatant was discarded. Pre-cooled fluorescent labeled goat anti-human IgG antibodies (Jackson, catalog No. 109-116-170) were added, and the cells were resuspended at 100 μL per well, mixed well and incubated at 4° C. for 30 min. After washing, 100 μL of pre-cooled running buffer was added to resuspend the cells. The cells were mixed well and collected while flowing on an Attune™ NxT flow cytometer, and the data was analyzed using Graphpad Prism5 software. FIGS. 7-9 and Table 11 show the binding ability of the anti-BCMA/anti-CD3 multispecific antibodies to NCI-H929 cells (BCMA+++), MM1S cells (BCMA++), and RPMI-8226 cells (BCMA+).
# [5] = target: T1, human BCMA on cells; assay: flow cytometry, NCI-H929 cells
# Description: as §1
# [6] = target: T3, T cell surface CD3 (human, UniProt P07766 23-207); assay: flow cytometry, human CD3+ T cells
# T3 construct: whole, on cells; also called CD3^+ T cells
# T3 sequence (P07766 23-207): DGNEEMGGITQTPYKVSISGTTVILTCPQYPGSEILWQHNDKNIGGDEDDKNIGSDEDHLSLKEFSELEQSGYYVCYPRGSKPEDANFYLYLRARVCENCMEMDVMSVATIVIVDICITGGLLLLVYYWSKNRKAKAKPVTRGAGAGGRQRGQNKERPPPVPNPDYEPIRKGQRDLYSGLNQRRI
# Description: Human PBMC cells were sorted for CD3⁺ T cells using CD3 magnetic beads (Miltenyi, catalog No. 130-097-043): the cryopreserved PBMCs were thawed, and washed by centrifugation twice for counting. Running buffer (MACS, catalog No. 130-091-221) was added in a cell-to-buffer ratio of 10⁷:80 μL, CD3 beads were added in a cell-to-bead ratio of 10⁷:20 μL, and the mixture was mixed well and incubated at 4° C. for 15 min. The cells were washed with buffer in a cell-to-buffer ratio of 10⁷:1-2 mL. After centrifugation, the supernatant was discarded, and 500 μL of buffer was added to resuspend the cell pellet. The LS sorting column (Miltenyi, catalog No. 130-042-401) was placed on the MidiMACS Starting Kit (LS) magnetic rack (Miltenyi, catalog No. 130-091-051). After rinsing, the cell suspension was added and washed thrice. The LS sorting column was removed from the magnetic rack and placed on a clean centrifuge tube and 5 mL buffer was added to collect the sorted CD3⁺ T cells. After counting, the CD3⁺ T cells were adjusted to a cell density of 5×10⁶-10×10⁶ cells/mL using RPMI medium (Hyclone, catalog No. SH30809.01) containing 2% FBS (fetal bovine serum) and seeded in a 96-well U-bottom cell culture plate (Costar, catalog No. 3799) at 50 μL per well. The test antibodies at different concentrations were prepared using the medium described above. […] The antibodies at different concentrations were added to the 96-well cell culture plate described above at 50 μL per well, mixed well and incubated at 4° C. for 1 h. The cells were washed with pre-cooled running buffer (MACS, catalog No. 130-091-221), and the supernatant was discarded. Pre-cooled fluorescent labeled goat anti-human IgG antibodies (Jackson, catalog No. 109-116-170) were added, and the cells were resuspended at 100 μL per well, mixed well and incubated at 4° C. for 30 min. After washing, 100 μL of pre-cooled running buffer was added to resuspend the cells.
# [7] = target: T1, human BCMA on cells; assay: flow cytometry on RPMI-8226 cells, fluorescent goat anti-human IgG detection
# Description: as §1
# [8] = target: T2, human BCMA protein; assay: SPR (Biacore T200), antibody captured by anti-hIgG, human BCMA as analyte, 1:1 model
# Description: (§2) The affinity of the test antibody for human CD3e or human BCMA protein was determined by Biacore T200 (GE) as follows:
# (§3) The response signals were detected in real time using Biacore software, and association and dissociation curves were obtained. The buffer used in the experiment was Biacore universal buffer (137 mM NaCl, 2.7 mM KCl, 10 mM Na₂HPO₄.12H₂O, 1.8 mM KH₂PO₄. 0.05% surfactant P-20 (w/v), pH 7.4). […] The flow rate in the flow cell was at 50 μL/min, the association was performed for 240 s, the dissociation was performed for 1400 s, the regeneration was performed using 3 M MgCl (GE) for 60 s, and the baseline was stable. Results were obtained by calculation according to the affinity and kinetics 1:1 binding mode in biacore evaluation software.
# [9] = target: T4, human CD3e (Acro, Cat. No. CDE-H5223) (human, UniProt P07766 23-126); assay: SPR (Biacore T200), antibody captured by anti-hIgG, human CD3e as analyte, 1:1 model
# T4 construct: also called human CD3e protein; hCD3e
# T4 sequence (P07766 23-126 limits assumed): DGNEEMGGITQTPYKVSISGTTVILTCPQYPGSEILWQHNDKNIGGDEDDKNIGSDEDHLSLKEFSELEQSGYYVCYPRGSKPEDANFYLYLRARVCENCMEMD
# Description: as §2, §3
binder,measurement,setting,value
"anti-BCMA/anti-CD3 multispecific antibody PC2 (bispecific antibody, human IgG1, Trivalent; two chains; human IgG1 knobs-into-holes Fc) chain 1: QVQLVESGGGLVQPGGSLRLSCAASGYSSNVACMAWYRQAPGKGLEWVATIVADFGTTNYAASVKGRFTISQDNSKNTVYLQMNSLRAEDTAVYYCAATQRGGIDWCDEINYWGQGTLVTVSSGEPKSSDKTHTCPPCPAPEAAGGPSVFLFPPKPKDTLMISRTPEVTCVVVDVSHEDPEVKFNWYVDGVEVHNAKTKPREEQYNSTYRVVSVLTVLHQDWLNGKEYKCKVSNKALAAPIEKTISKAKGQPREPQVCTLPPSREEMTKNQVSLSCAVKGFYPSDIAVEWESNGQPENNYKTTPPVLDSDGSFFLVSKLTVDKSRWQQGNVFSCSVMHEALHNHYTQKSLSLSPGK chain 2: QVQLVESGGGLVQPGGSLRLSCAASGFTFNSACMGWFRQAPGKGREGVSRIETGYGGTVYADSVKGRFTISRDNSKNTVYLQMNSLRAEDTAVYYCAAKRSWCTPTWWHELDYNYWGQGTQVTVSSGGGGSELVVTQEPSLTTSPGGTVTLTCRSSTGAVTTSNYANWVQQKPGQAPRGLIGGTNKRAPGTPARFSGSLLGGKAALTITGVQPEDEAEYYCALWYSNLWVFGGGTKLTVLGGGGSGGGGSGGGGSEVQLVESGGGLVQPGGSLRLSCAASGFTFNTYAMNWVRQAPGKGLEWVARIRSKYNNYATYYADSVKDRFTISRDDSKNTAYLQMNNLKTEDTAMYYCVRHGNFGNSYVSWFAYWGQGTLVTVSSGEPKSSDKTHTCPPCPAPEAAGGPSVFLFPPKPKDTLMISRTPEVTCVVVDVSHEDPEVKFNWYVDGVEVHNAKTKPREEQYNSTYRVVSVLTVLHQDWLNGKEYKCKVSNKALAAPIEKTISKAKGQPREPQVYTLPPCREEMTKNQVSLWCLVKGFYPSDIAVEWESNGQPENNYKTTPPVLDSDGSFFLYSKLTVDKSRWQQGNVFSCSVMHEALHNRFTQKSLSLSPGK","Lysis EC50, NCI-H929 cells with human PBMCs (E:T 10:1, 24 h, LDH release)",[1],0.527 nM
same,"Maximum lysis rate, NCI-H929 cells with human PBMCs",[1],38%
same,"Lysis EC50, MM1S cells with human PBMCs (E:T 10:1, 24 h, LDH release)",[2],0.0605 nM
same,"Maximum lysis rate, MM1S cells with human PBMCs",[2],28%
same,"Lysis EC50, RPMI-8226 cells with human PBMCs (E:T 10:1, 24 h, LDH release)",[3],0.0185 nM
same,"Maximum lysis rate, RPMI-8226 cells with human PBMCs",[3],39%
same,EC50,[4],0.311 nM
same,Top(MFI),[4],115000 MFI
same,EC50,[5],1.03 nM
same,Top(MFI),[5],234000 MFI
same,EC50,[6],~462 nM
same,Top(MFI),[6],37200 MFI
same,EC50 (read off the curve),[7],~0.3 nM
same,Kd,[8],0.0185 nM
same,Kd,[9],1.33 nM
